Assay results taken from FireProtDB.
Where “and” joins values, the source holds several entries; their conditions need not be identical. Identical values can stand only once.

Conditions: Aspergillus oryzae (strain ATCC 42149 / RIB 40), whole UniProt chain shown
[1] = pH 1, Thermal, NMR, HCl, KCl 0.15 M, reversible: yes
[2] = pH 1.2, 25 °C, Thermal, Absorbance, glycine-HCl 30 mM, NaCl 0.10 M
[3] = pH 1.6, Thermal, CD, HCl, reversible: yes
[4] = pH 2, 15 °C, GdnHCl, CD, HCl, reversible: yes
[5] = pH 2.08, Thermal, CD, HCl, reversible: yes
[6] = pH 2.2, Thermal, Absorbance, glycine 50 mM
[7] = pH 2.2, Thermal, CD, glycine 50 mM
[8] = pH 2.2, Thermal, Fluorescence, glycine 50 mM
[9] = pH 2.5, Thermal, DSC, glycine 50 mM, NaCl 200 mM, reversible: yes
[10] = pH 4.5, Thermal, DSC, Potassium acetate 50 mM, reversible: no
[11] = pH 4.6, 25 °C, GdnHCl, Absorbance, Sodium acetate 100 mM, reversible: yes
[12] = pH 4.6, 30 °C, GdnHCl, Absorbance, Sodium acetate 100 mM, reversible: yes
[13] = pH 4.6, 35 °C, GdnHCl, Absorbance, Sodium acetate 100 mM, reversible: yes
[14] = pH 4.6, Thermal, Absorbance, Sodium acetate 50 mM
[15] = pH 5, 10 °C, GdnHCl, Fluorescence, Sodium acetate 50 mM
[16] = pH 5, Thermal, Absorbance, Sodium acetate 50 mM, reversible: Yes
[17] = pH 5, Thermal, Absorbance, Sodium acetate 0.10 M, NaCl 0.10 M, reversible: yes
[18] = pH 5, Thermal, Absorbance, sodium acetate 5-20 mM, reversible: yes
[19] = pH 5, Thermal, CD, sodium acetate 5-20 mM, reversible: yes
[20] = pH 5, Thermal, DSC, acetate 50 mM, reversible: no
[21] = pH 5, Thermal, Fluorescence, Sodium acetate 0.05 M, reversible: yes
[22] = pH 5.5, Thermal, Absorbance, MES 50 mM, reversible: yes
[23] = pH 5.5, Thermal, DSC, Potassium acetate 15 mM
[24] = pH 5.5, Thermal, DSC, Potassium acetate 50 mM, reversible: yes
[25] = pH 5.5, Thermal, DSC, acetate 30 mM
[26] = pH 5.5, Thermal, DSC, sodium acetate 10 mM, KCl 100 mM, reversible: yes
[27] = pH 6, Thermal, Absorbance, MES 0.05 M, reversible: no
[28] = pH 6, Thermal, CD, MES 10 mM, KCl 0.1 M
[29] = pH 6, Thermal, DSC, Sodium phosphate 50 mM, NaCl 200 mM, reversible: yes
[30] = pH 6.35, 25 °C, Urea, Absorbance, Glycinamide 0.1 M
[31] = pH 6.8, Thermal, DSC, phosphate 10 mM, reversible: no
[32] = pH 7, 20 °C, GdnHCl, CD, Mops 50 mM
[33] = pH 7, 20 °C, GdnHCl, Fluorescence, Mops 50 mM
[34] = pH 7, 20 °C, GdnHCl, SAXS, Mops 50 mM
[35] = pH 7, Thermal, Absorbance, phosphate 0.03 M
[36] = pH 7, Thermal, CD, MOPS 20 mM, reversible: Yes (>90%)
[37] = pH 7, Thermal, CD, Sodium cacodylate 50 mM, reversible: yes
[38] = pH 7, Thermal, DSC, MES 30 mM, reversible: yes
[39] = pH 7, Thermal, DSC, bis-Tris-HCl 50 mM, reversible: yes
[40] = pH 7, Thermal, Fluorescence, MOPS 30 mM, NaCl 0.1 M, reversible: yes
[41] = pH 7, Thermal, Fluorescence, MOPS 30 mM
[42] = pH 7.05, 25 °C, Urea, Absorbance, Glycinamide 0.1 M
[43] = pH 7.1, Thermal, Absorbance, None, reversible: Yes (>90%)
[44] = pH 7.1, Thermal, CD, None, reversible: Yes (>90%)
[45] = pH 8, 25 °C, GdnHCl, CD, Sodium phosphate 50 mM, NaCl 25 mM, reversible: Yes

B1: Guanyl-specific ribonuclease T1 wild type, P00651 (protein)
chain: MMYSKLLTLTTLLLPTALALPSLVERACDYTCGSNCYSSSDVSTAQAAGYQLHEDGETVGSNSYPHKYNNYEGFDFSVSSPYYEWPILSSGDVYSGGSPGADRVVFNENNQLAGVITHTGASGNNFVECT
Tm [1]: 42.4 °C | heat capacity change of unfolding [1]: 1.79 kcal/mol/K | unfolding enthalpy (van 't Hoff) [1]: 43.2 kcal/mol | heat capacity change of unfolding [2]: 1.47 kcal/mol/K | unfolding enthalpy (van 't Hoff) [2]: 54.8 kcal/mol | unfolding free energy [2]: 1 kcal/mol | Tm [3]: 23 °C | unfolding free energy [3]: 1.72 kcal/mol | Tm (pH 1.9, Thermal, CD, HCl, reversible: yes): 25.8 °C | denaturant midpoint (higher = more stable) [4]: 1.86 M | unfolding free energy [4]: 3.68 kcal/mol | Tm [5]: 28.7 °C | unfolding free energy [5]: 3.16 kcal/mol | Tm [6]: 8.3 °C | unfolding enthalpy (van 't Hoff) [6]: 49 kcal/mol | Tm [7]: 20.2 °C | unfolding enthalpy (van 't Hoff) [7]: 20 kcal/mol | Tm [8]: 9.3 °C | unfolding enthalpy (van 't Hoff) [8]: 24 kcal/mol | Tm [9]: 40 °C | heat capacity change of unfolding [9]: 1.15 kcal/mol/K | unfolding enthalpy (calorimetric) [9]: 85 kcal/mol | Tm (pH 4.4, Thermal, NMR, Unknown): 52.3 °C | unfolding enthalpy (van 't Hoff) (pH 4.4, Thermal, NMR, Unknown): 127 kcal/mol | Tm [10]: 57 °C | unfolding enthalpy (calorimetric) [10]: 106 kcal/mol | denaturant m value [11]: 2.56 kcal/mol/M | denaturant midpoint (higher = more stable) [11]: 2.82 M | unfolding free energy [11]: 7.22 kcal/mol | denaturant m value [12]: 2.65 kcal/mol/M | denaturant midpoint (higher = more stable) [12]: 2.56 M | unfolding free energy [12]: 6.59 kcal/mol | denaturant m value [13]: 2.48 kcal/mol/M | denaturant midpoint (higher = more stable) [13]: 2.25 M | unfolding free energy [13]: 5.6 kcal/mol | Tm [14]: 56.2 °C | unfolding enthalpy (van 't Hoff) [14]: 107 kcal/mol | denaturant m value [15]: 1.84 kcal/mol/M | denaturant midpoint (higher = more stable) [15]: 5.18 M | unfolding free energy [15]: 9.54 kcal/mol | unfolding free energy (pH 5, 25 °C, GdnHCl, CD, Sodium acetate-Acetic acid 0.1 M, reversible: yes): 10.5 kcal/mol | unfolding free energy (pH 5, 25 °C, GdnHCl, DSC, Sodium acetate-Acetic acid 0.1 M, reversible: yes): 11 kcal/mol | unfolding free energy (pH 5, 40 °C, Thermal, Absorbance, Sodium acetate 50 mM, reversible: Yes): 5.06 kcal/mol | Tm [16]: 58 °C | unfolding enthalpy (van 't Hoff) [16]: 104 kcal/mol | Tm (pH 5, Thermal, Absorbance, Sodium acetate 50 mM, reversible: yes): 44.4 °C | Tm [17]: 63.3 °C | unfolding enthalpy (van 't Hoff) [17]: 118 kcal/mol | Tm (pH 5, Thermal, Absorbance, sodium acetate 50 mM, reversible: yes): 61.5 °C | Tm [18]: 58.2 °C | unfolding enthalpy (van 't Hoff) [18]: 102 kcal/mol | Tm (pH 5, Thermal, CD, sodium acetate 50 mM): 53.7 °C | Tm [19]: 64.3 °C | unfolding enthalpy (van 't Hoff) [19]: 90.8 kcal/mol | Tm [20]: 58.9 °C | unfolding enthalpy (calorimetric) [20]: 89.6 kcal/mol | Tm (pH 5, Thermal, Fluorescence, Sodium acetate 0.01 M, reversible: yes (>98%)): 58.8 °C | Tm [21]: 56.7 °C | unfolding enthalpy (van 't Hoff) [21]: 117 kcal/mol | Tm (pH 5, Thermal, Fluorescence, Sodium formate 0.1 M, NaCl 0.25 M, reversible: yes): 59.3 °C | Tm [22]: 58 °C | unfolding enthalpy (van 't Hoff) [22]: 103 kcal/mol | Tm [23]: 62 °C | unfolding enthalpy (calorimetric) [23]: 109 kcal/mol | unfolding enthalpy (van 't Hoff) [23]: 110 kcal/mol | Tm [24]: 60.9 °C | heat capacity change of unfolding [24]: 1 kcal/mol/K | unfolding enthalpy (calorimetric) [24]: 99.1 kcal/mol | Tm [25]: 64 °C | heat capacity change of unfolding [25]: 1.24 kcal/mol/K | unfolding enthalpy (calorimetric) [25]: 116 kcal/mol | Tm [26]: 60.7 °C | unfolding enthalpy (calorimetric) [26]: 107 kcal/mol | unfolding free energy (pH 6, 25 °C, Thermal, CD, MES 10 mM, KCL 0.1 M): 9.3 kcal/mol | Tm [27]: 51.9 °C | unfolding enthalpy (van 't Hoff) [27]: 97.5 kcal/mol | Tm (pH 6, Thermal, Absorbance, Sodium acetate 30 mM, NaCl 0.10 M, reversible: yes): 61.6 °C | Tm [28]: 59.6 °C | unfolding enthalpy (van 't Hoff) [28]: 112 kcal/mol | Tm [29]: 63.7 °C | heat capacity change of unfolding [29]: 1.3 kcal/mol/K | unfolding enthalpy (calorimetric) [29]: 114 kcal/mol | Tm (pH 6, Thermal, DSC, citrate 20 mM, NaCl 55 mM, reversible: yes): 65 °C | Tm (pH 6, Thermal, DSC, phosphate, reversible: yes(>90%)): 63.2 °C | denaturant m value [30]: 1.49 kcal/mol/M | denaturant midpoint (higher = more stable) [30]: 7.16 M | unfolding free energy (pH 6.45, 26 °C, GdnHCl, CD, Sodium phosphate 10 mM, KCl 0.1 M, reversible: yes): 14.4 kcal/mol | Tm [31]: 63.8 °C | unfolding enthalpy (calorimetric) [31]: 114 kcal/mol | unfolding free energy (pH 7, 0 °C, Urea, Fluorescence, MOPS 30 mM, NaCl 0.1 M, reversible: yes): 1.31 kcal/mol | unfolding free energy (pH 7, 2 °C, Urea, Fluorescence, MOPS 30 mM, NaCl 0.1 M, reversible: yes): 1.2 kcal/mol | unfolding free energy (pH 7, 5 °C, Urea, Fluorescence, MOPS 30 mM, NaCl 0.1 M, reversible: yes): 0.85 kcal/mol | denaturant m value [32]: 2.3 kcal/mol/M | denaturant midpoint (higher = more stable) [32]: 2.6 M | denaturant m value [33]: 1.9 kcal/mol/M and 1.8 kcal/mol/M | denaturant midpoint (higher = more stable) [33]: 2.6 M and 2.3 M | denaturant m value [34]: 1.9 kcal/mol/M | denaturant midpoint (higher = more stable) [34]: 2.5 M | unfolding free energy (pH 7, 25 °C, Urea, Fluorescence, MOPS 30 mM, reversible: yes): 5.5 kcal/mol | unfolding enthalpy (van 't Hoff) [35]: 115 kcal/mol and 112 kcal/mol and 104 kcal/mol | unfolding free energy [35]: 8.8 kcal/mol and 8 kcal/mol | Tm [36]: 61.7 °C | unfolding enthalpy (van 't Hoff) [36]: 112 kcal/mol | Tm [37]: 52.5 °C | unfolding enthalpy (van 't Hoff) [37]: 97.7 kcal/mol | Tm [38]: 53.3 °C | heat capacity change of unfolding [38]: 1.6 kcal/mol/K | unfolding enthalpy (calorimetric) [38]: 84.7 kcal/mol | Tm (pH 7, Thermal, DSC, Potassium phosphate 0.1 M): 44.4 °C | Tm [39]: 65.6 °C | unfolding enthalpy (calorimetric) [39]: 110 kcal/mol | Tm [40]: 12.4 °C | heat capacity change of unfolding [40]: 1.59 kcal/mol/K | unfolding enthalpy (van 't Hoff) [40]: 39.9 kcal/mol | Tm [41]: 48.3 °C | unfolding enthalpy (van 't Hoff) [41]: 96 kcal/mol | denaturant m value [42]: 1.45 kcal/mol/M | denaturant midpoint (higher = more stable) [42]: 7.59 M | unfolding free energy [42]: 10.9 kcal/mol and 3.97 kcal/mol | Tm [43]: 62.8 °C | unfolding enthalpy (van 't Hoff) [43]: 66 kcal/mol | Tm [44]: 61.4 °C | unfolding enthalpy (van 't Hoff) [44]: 122 kcal/mol | Tm (pH 7.4, Thermal, CD, PBS): 61.1 °C | unfolding enthalpy (van 't Hoff) (pH 7.4, Thermal, CD, PBS): 105 kcal/mol | unfolding free energy (pH 8, 15 °C, Urea, CD, Tris-HCl 0.1 M, NaCl 2.5 M): 2.61 kcal/mol | denaturant m value [45]: 1.99 kcal/mol/M | denaturant midpoint (higher = more stable) [45]: 3.1 M | Tm (pH 8, Thermal, CD, Sodium phosphate 50 mM, NaCl 25 mM, reversible: Yes): 65.6 °C | denaturant midpoint (higher = more stable) (pH 8.4, 23 °C, GdnHCl, Fluorescence, Tris-HCl 0.1 M): 2.25 M | denaturant midpoint (higher = more stable) (pH 8.4, 23 °C, GdnSCN, Fluorescence, Tris-HCl 0.1 M): 0.75 M
